Measurements: patent US20250357519A1, “APPLICATIONS OF O2-INSENSITIVE FORMATE DEHYDROGENASE” (UNIVERSITY OF MARYLAND, BALTIMORE, priority 2022, published 2025)

Tests used:
[1] = H2O2 production, Amplex Red (AR) method; assay type: biochemical, Desulfovibrio vulgaris Hildenborough; conditions: aerobic DvH-FDH2 catalysis, AR assay
[2] = Oxygen consumption (Clark-type O2 electrode oximetry); assay type: biochemical, Desulfovibrio vulgaris Hildenborough
[3] = test system: equine cytochrome c; assay: Reduction of equine cytochrome c by DvH-FDH2; assay type: biochemical
[4] = H2O2 production, coumarin boronic acid (CBA) assay; assay type: biochemical, Desulfovibrio vulgaris Hildenborough; conditions: aerobic catalysis, formate between 1 and 10 Km
Protocol: Coumarin Boronic Acid (CBA) Assay. 10 mg of coumarin boronic acid (CBA) Cayman Chemicals 14051) was dissolved in 3.33 mL of DMSO. 101 μL of the CBA stock and 1.6 μL 0.5MDTPA were added to 3.9 mL 50 mM sodium phosphate pH 7.4 to produce a 2× working solution. The remaining steps essential identical to those used in the AR assay except that the plate was shaken at 400 rpm in an incubator (23° C.) for 15 min prior to CBA addition. Fluorescence detection was initiated by addition of 50 μL of the CBA 2× working solution, and the plate was scanned in fluorescence mode (excitation 332 nm and emission 470 nm). This method was also used in the context of redox bifurcation to quantify H2O2 production by DvH-FDH2 in the presence of 30 μM cytochrome c. Independently, the latter was incubated with H2O2 for the same duration (in the absence of DvH-FDH2) to assess the extent of peroxidase activity. Cytochrome c concentration was estimated as follows: oxidized ε410=106.1 mM^−1 cm^−1 and reduced ε550=29.5 mM^−1 cm^−1.
The following controls were common to both CBA and AR assays. (1) Heat-denatured DvH-FDH2, (2) addition of catalase (100 U/mL), (3) addition of SOD (10 U/mL), (4) FDH2 omitted, (5) fluorogenic substrate excluded, (6) formate excluded, and (7) buffer only.

[5] = Phenazine ethosulfate (PES)/dichlorophenolindophenol (DCPIP) assay of formate oxidation by DvH-FDH2; assay type: biochemical, Desulfovibrio vulgaris Hildenborough; conditions: PES/DCPIP-based
Text: FIG. 38. Experimental workflow for aerobic PES/DCPIP assay. Prepare cuvette (1), fill with reaction mix (2), add stirrer (3), initiate kinetics by the addition of DvH-FDH2 while the contents of the cuvette are being mixed (4), and continue data collection until completion (5). Blue arrows shown at the bottom in steps 4 and 5 denote stirring.
FIG. 39. Experimental workflow for anaerobic PES/DCPIP assay. Setup cuvette (1,2), add reaction mix (3), gas with argon (4), start the reaction by injecting DvH-FDH2 (5), and collect data until the reaction goes to completion (6). Blue arrows shown at the bottom in steps 4-6 represent stirring.
In this dye-linked assay, PES (Em,7=+65 mV) serves as the primary electron acceptor. Following its reduction by FDH2, PES nonenzymatically transfers electrons to a second dye, DCPIP, facilitating spectrophotometric detection.^91 Workflows are described in FIGS. 38 and 39. PES was chosen over PMS because of its long-term stability.^120 Furthermore, necessary precautions were taken in handling and preparing the reagents, including protecting the reagents from light.^187 DvH-FDH2 was assayed in 1 mM PES (Sigma-Aldrich P4544-1G)/93 μM DCPIP (98% pure; Acros 152870100) in 50 mM Tris pH 8.0. […] Assays were performed using a UV-2600i spectrophotometer (Shimadzu Life Sciences) equipped with T2 Peltier/stirrer accessory (Quantum) and monitored at 600 nm. […]

B1: DvH-FDH2 (protein)
chain 1: MRMPRRTFIKLASASAGALAFAGLGQSLAPTVARAAELKIAKAKVTPSVCCFCAVGCGLLVYTDTQTGRSINIEGDPDHPTNEGTLCPKGASIWQTTERSKRVTKVLYRAPGAAAWEEKSWDWALPRIARKIKETRDATFELTNDKGQTVNRTRGIASVGSAAVDNEEGWLMQAMMRALGLVYIESHARIUHSSTVGALAESYGRGAMTNHWIDLKNSDVILIMGSNAAENHPISFKWVTRAQERGATLIHVDPRFTRTSAKADIHAHIRSGTDIAFFGGLIRYIMENDLFFRQYVVDYTNASYIVGADYGFADGLFTGFDAEKGTYNTKKWAFAADENGMTLKDPTLNDPRCVFQLMKAHYARYDRKTVSDVTGISEEQLATLWSTFASTGKPDRAGTILYAMGQCQHTVGVQNIRALSMIQLLLGNIGIAGGGVNALRGESNVQGTTDISLLCDNLSGYLPTPKASWATFDDYVKGTTPVDKDPKSANWWSNRGKYLASYMKSVYPTASHQDGYLWHPKVDDGKITDYSWLQIFERMSKGGFKGAFVWGQNPCAGGANAGKNRKAMETLDWMVVVNLFENESSLFWKGPGVDPAKVKTEVFFLPACMSVEKGGSIANSGRWLQWREPGPKPMGDSRSDGDIVLDLYDEIRKLYREEKGAFPEPVLALDTDYRTDGKYDHHKVAKTLNGKFLTDVTIGDKTYKAGQQVPGFAMLQADGSTTSGCWIFTGCYTDAGNMMARRDRTQTPEQAAIGLFPNWSYAWPANRRILYNRAAVDMTGKPFDPKRAVIAWNGEKWVGDVPDGGWKPGEKLPFIMIREGRGQLFGPGRVDGPFPEHYEPFESPLESHPFSKQRVNPTALAFSHEPKAVRDKRYPFICTTYRVTEQWQSGTMTRNTGWLKEMQPEGFCEISRELAKELGIANGDAVVLESLRGKVQVVAIVTPRLKPFKVMGEVMHEVGIPWQFGWGQHVGKGDSANLLSPSVGDPNTGIPETKVFMVNLRKA
chain 2: MRPLGSLPQGMRRVSRRHIREAYMNGKTFFIDQTRCTACRGCQAACKQWKKFGSIETRNTGSYQNPPDLGPSTFKLVRFNEVEVDGKLKWLFFPEQCRHCLEPPCKMVADALIPGAIVQDAETGAVLYTEKTKGLDYMEVRSACPYDIPRQDPATGLLTKCNMCIDRVQNGMLPACVKTCPTGTMHFGDRADMLELAQKRLGEVKKRSPAALLADSDLVRVLYLCELAPANYHSHMVAEADTSRIGPFSRRALLRLRPFA
modifications: non-natural residues; left off: small tags and cut ends
H2O2 produced per mole of formate oxidized [1]: roughly 0.75 mol | electron flux towards hydrogen peroxide generation (u/v value) ([2]; oximetry, catalase added after equilibrium): ~80% | fraction of electrons from formate ending up in H2O2 (x/y value) ([2]; oximetry, catalase added after equilibrium, likely an underestimate): roughly one quarter | O2 uptake lower in presence of catalase (initial velocities) ([2]; presence vs absence of catalase): 50% | native equine cytochrome c reduction ([3]; anaerobic conditions): stoichiometric reduction | native equine cytochrome c reduced ([3]; in air, 30 μM cytochrome c, 10 μM formate): ~80% | H2O2 production [4]: 64±6% | kcat/Km for formate oxidation, fold higher than aerotolerant Mo-Cys-FDH from Rhodobacter capsulatus (NAD^+) [5]: ~500 fold
